Assay results: patent publication US20250215101A1, “DR5 Agonist and PLK1 Inhibitor or CDK Inhibitor Combination Therapy” (Inhibrx Biosciences, Inc., priority 2022, published 2025)

Tests used:
[1] = system: LS411N; assay: Cell viability (CellTiter-Glo) cytotoxicity assay, INBRX-109 x onvansertib matrix, 48 h; type: cell-based
Method: (§1) Monolayer cultures of each cell line were harvested for compound screening as detailed below.
(§2) Onvansertib: A 10 mg stock of onvansertib was purchased from Selleck Chemicals and was resuspended to 10 mM in DMSO. This was then aliquoted and stored at −80° C. Aliquots were thawed immediately prior to dilution and use in the assay. A 500× master plate of serial dilutions (6-point 5-fold dilutions in 100% DMSO starting at 500 μM, plus a DMSO only control) was prepared and mixed gently with a pipette. To generate a 5× working dilution plate of onvansertib, a 1:100 dilution was performed from the 500× plate into complete media (EMEM).
(§3) Also on day 2, test and control articles were added.
(§4) On day 4, viability measurements were taken. […] Data was graphed in GraphPad Prism 9.

[2] = system: SW620; assay: as above; type: cell-based; conditions: SW620; INBRX-109 only (Table 1)
Method: as §1, §2, §3, §4

[3] = system: SW1463; assay: as above; type: cell-based; conditions: SW1463
Method: as §1, §2, §3, §4

[4] = system: LS174T; assay: as above; type: cell-based
Method: as §1, §2, §3, §4

[5] = system: HT-29; assay: as above; type: cell-based; conditions: HT-29
Method: as §1, §2, §3, §4

[6] = system: SW837; assay: as above; type: cell-based; conditions: SW837
Method: as §1, §2, §3, §4

[7] = system: Panc 10.05; assay: Cytotoxicity assay, pancreatic cell line panel, onvansertib +/- 1 nM INBRX-109; type: cell-based; conditions: Panc 10.05; 1 nM INBRX-109 only
Method: as §1, §3, §4
(§5) The results for a panel of colorectal cancer cell lines are shown in Table 3 and FIGS. 4-6, and the results for a panel of pancreatic cell lines are shown in Table 4 and FIGS. 7 and 8.

[8] = system: AsPC-1; assay: as above; type: cell-based; conditions: AsPC-1; 1 nM INBRX-109 only
Method: as §1, §3, §4, §5

[9] = system: BxPC-3; assay: as above; type: cell-based; conditions: BxPC-3; 1 nM INBRX-109 only
Method: as §1, §3, §4, §5

[10] = system: Panc 05.04; assay: as above; type: cell-based; conditions: Panc 05.04; 1 nM INBRX-109 only
Method: as §1, §3, §4, §5

[11] = system: HPAF-II; assay: as above; type: cell-based; conditions: 1 nM INBRX-109 only
Method: as §1, §3, §4, §5

[12] = system: MIA PaCa-2; assay: as above; type: cell-based; conditions: MIA PaCa-2; 1 nM INBRX-109 only
Method: as §1, §3, §4, §5

[13] = system: SU.86.86; assay: as above; type: cell-based; conditions: SU.86.86; 1 nM INBRX-109 only
Method: as §1, §3, §4, §5

[14] = system: Panc 03.27; assay: as above; type: cell-based; conditions: Panc 03.27; 1 nM INBRX-109 only
Method: as §1, §3, §4, §5

[15] = system: PL45; assay: as above; type: cell-based; conditions: PL45; 1 nM INBRX-109 only
Method: as §1, §3, §4, §5

[16] = system: Capan-2; assay: as above; type: cell-based; conditions: Capan-2; 1 nM INBRX-109 only
Method: as §1, §3, §4, §5

[17] = system: PSN-1; assay: as above; type: cell-based; conditions: PSN-1; 1 nM INBRX-109 only
Method: as §1, §3, §4, §5

[18] = system: Capan-1; assay: as above; type: cell-based; conditions: Capan-1; 1 nM INBRX-109 only
Method: as §1, §3, §4, §5

[19] = system: SW-1990; assay: as above; type: cell-based; conditions: SW-1990; 1 nM INBRX-109 only
Method: as §1, §3, §4, §5

[20] = system: HuP-T4; assay: as above; type: cell-based; conditions: HuP-T4; 1 nM INBRX-109 only
Method: as §1, §3, §4, §5

[21] = system: CFPAC-1; assay: as above; type: cell-based; conditions: CFPAC-1; 1 nM INBRX-109 only
Method: as §1, §3, §4, §5

[22] = system: PANC-1; assay: as above; type: cell-based; conditions: PANC-1; 1 nM INBRX-109 only
Method: as §1, §3, §4, §5

[23] = system: KP4; assay: as above; type: cell-based; conditions: KP4; 1 nM INBRX-109 only
Method: as §1, §3, §4, §5

[24] = system: SW1353; assay: Cell viability (CellTiter-Glo) cytotoxicity assay, INBRX-109 x CDK9 or MCL-1 inhibitor matrix, 48 h, chondrosarcoma line
Method: On day 1, cells were seeded as follows. Monolayer cultures of each cell line (chondrosarcoma: CAL-78, OUMS-27, SW1353, and H-EMC-SS; colorectal cancer: SW620; and synovial sarcoma: HS-SY-II) were harvested for compound screening. Culture medium was aspirated, and the cells were washed once with PBS. Accutase was added and flasks were incubated at 37° C. until cells became detached. An equal volume of complete medium was added to quench the Accutase, and the cells were then pipetted up and down several times to generate a homogenous single cell suspension. The density and viability of cells was determined by Trypan Blue using a TC20 Automated Cell Counter. Experimental cells were resuspended to a concentration of 0.17×10^6/mL in Eagle's Minimum Essential Medium (EMEM)/10% FBS/Anti-Anti media (complete EMEM) and seeded in the inner wells of 384-well luminescence plates at 15 mL/well (2,500/well final). Each cell line was plated in duplicate on separate plates. Outer wells were filled with 50 mL PBS, then plates were incubated in a humidified temperature-controlled 37° C. tissue culture incubator at 5% CO2 overnight for 16 hours.
These test articles were added, in duplicate, to each cell line. The plates were then centrifuged at 400×g for 1 minute, then incubated in a 37° C. humidity-controlled tissue culture incubator (5% CO2) for 48 hours.
After incubation with the test articles, viability measurements were taken, briefly. Plates were equilibrated to room temperature for 10 minutes, then 25 μL of CellTiter-Glo 2.0® was added to each well. Plates were spun for 1 minute at 400×g, then covered and incubated in the dark for 10 minutes at room temperature. Any visible bubbles were removed with 100% ethanol vapor, then luminescence (RLU) was read on the Spectra Max M5e plate reader, using the 384-well opaque plate setting and SoftMax® Pro v5.4 software with an integration time of 50 milliseconds. To determine the effect of test articles on cell viability, raw RLU values were exported to Excel and percent survival was calculated as a percentage of vehicle control (0.5% DMSO in EMEM), where the vehicle control is set at 100%. Data was graphed in GraphPad Prism 9.

B1: INBRX-109: DR5-binding polypeptide consisting of SEQ ID NO: 7 (two VHH domains and an Fc region); DR5 agonist (protein)
chain: EVQLLESGGGEVQPGGSLRLSCAASGLTFPNYGMGWFRQAPGKEREFVSAIYWSGGTVYYAESVKGRFTISRDNAKNTLYLQMSSLRAEDTAVYYCAVTIRGAATQTWKYDYWGQGTLVTVKPGGSGGSEVQLLESGGGEVQPGGSLRLSCAASGLTFPNYGMGWFRQAPGKEREFVSAIYWSGGTVYYAESVKGRFTISRDNAKNTLYLQMSSLRAEDTAVYYCAVTIRGAATQTWKYDYWGQGTLVTVKPGGGGDKTHTCPPCPAPGGPSVFLFPPKPKDTLMISRTPEVTCVVVDVSHEDPEVKFNWYVDGVEVHNAKTKPREEQYNSTYRVVSVLTVLHQDWLNGKEYKCKVSNKALPAPIEKTISKAKGQPREPQVYTLPPSRDELTKNQVSLTCLVKGFYPSDIAVEWESNGQPENNYKTTPPVLDSDGSFFLYSKLTVDKSRWQQGNVFSCSVMHEALHNHYTQKSLSLSPGK
modifications: INBRX-109
notes: DR5 agonist
- Max Cytotox ([1]; INBRX-109 + 200 nM onvansertib): 88.9%
- EC50 ([1]; INBRX-109 only (Table 1)): Unstable
- EC50 [2]: 4.78 pM
- Max Cytotox [2]: 20.25%
- EC50 ([3]; INBRX-109 + 200 nM onvansertib): 4.95 pM
- Max Cytotox ([3]; INBRX-109 + 200 nM onvansertib): 73.74%
- EC50 ([3]; INBRX-109 only (Table 1)): 66 pM
- Max Cytotox ([3]; INBRX-109 only (Table 1)): 38.14%
- EC50 ([4]; INBRX-109 + 200 nM onvansertib): 90.7 pM
- Max Cytotox ([4]; INBRX-109 + 200 nM onvansertib): 79.32%
- EC50 ([4]; INBRX-109 only (Table 1)): 10.7 pM
- Max Cytotox ([4]; INBRX-109 only (Table 1)): 59.68%
- Max Cytotox ([5]; INBRX-109 + 200 nM onvansertib): 94.94%
- EC50 ([5]; INBRX-109 only (Table 1)): 11.6 pM
- Max Cytotox ([5]; INBRX-109 only (Table 1)): 71.42%
- Max Cytotox ([6]; INBRX-109 + 200 nM onvansertib): 80.64%
- EC50 ([6]; INBRX-109 only (Table 1)): 1.23 pM
- Max Cytotox ([6]; INBRX-109 only (Table 1)): 6.43%
- Max Cytotox at 1 nM [7]: 23.8%
- Max Cytotox at 1 nM [8]: 14.5%
- Max Cytotox at 1 nM [9]: 51.3%
- Max Cytotox at 1 nM [10]: 97.0%
- Max Cytotox at 1 nM [11]: 22.8%
- Max Cytotox at 1 nM [12]: 77.9%
- Max Cytotox at 1 nM [13]: 92.5%
- Max Cytotox at 1 nM [14]: 53.2%
- Max Cytotox at 1 nM [15]: 14.1%
- Max Cytotox at 1 nM [16]: 11.1%
- Max Cytotox at 1 nM [17]: 91.9%
- Max Cytotox at 1 nM [18]: 86.9%
- Max Cytotox at 1 nM [19]: 54.7%
- Max Cytotox at 1 nM [20]: 80.7%
- Max Cytotox at 1 nM [21]: 23.8%
- Max Cytotox at 1 nM [22]: 32.6%
- Max Cytotox at 1 nM [23]: 7.8%
- EC50 ([24]; INBRX-109 + 125 nM enitociclib): 1.05 pM
- EC50 ([24]; INBRX-109 + 125 nM flavopiridol): 2.81 pM
- EC50 ([24]; INBRX-109 + 2 μM AZD-5991): 5.33 pM
- EC50 ([24]; INBRX-109 only (Table 5)): unstable
- EC50 ([24]; INBRX-109 only (Table 7)): unstable
- EC50 ([24]; INBRX-109 only (Table 9)): Unstable
- EC50 ([24]; INBRX-109 only (Table 11)): 9.1 pM
- EC50 ([24]; INBRX-109 only (Table 13)): Unstable
